Measured values as given in patent US20160356794A1 (Merck Sharp & Dohme, published 2016).
No end group written: not given here.

How the values were obtained:
SSGEPPKSGDRSGYS [1] = target: T1, SSGEPPKSGDRSGYS (human, also: covalently immobilized on glass through a hydrophilic linker); assay: RepliTope peptide microarray, immobilized 15-mer, fluorescent secondary antibody
T1 construct: Synthetic peptide covalently immobilized on glass through a hydrophilic linker (RepliTope microarray)
T1 peptide: SSGEPPKSGDRSGYS
Excerpt: (§1) Epitope mapping of clones 10H8 and 19G10 was completed using JPT Peptide Technologies' RepliTope™ peptide microarrays. This technology consists in using purified synthetic peptides chemoselectively and covalently immobilized to the glass surface. An optimized hydrophilic linker moiety is inserted between the glass surface and the antigen derived peptide sequence to avoid false negatives caused by sterical hindrance. The peptides used spanned Tau mid region protein sequence of 166 amino acids between amino acid 104 and amino acid 269 (Tau 166). Peptides of 15 amino acids in length that extended downstream either 1 or 2 amino acids at a time were used in this experiment.
(§2) The assay was performed using an automated TECAN HS4X00 microarray processing station. Microarrays were washed, incubated with blocking buffer for 60 min at 30° C., and subsequently with clones […] and 19G10 diluted in blocking buffer for 120 min at 30° C. Microarrays were washed and incubated with secondary antibody diluted in blocking buffer for 45 min at 30° C. and then dried. The quantification was performed using high resolution fluorescence scanner. The resulting images were analyzed and quantified using spot-recognition software GenePix (Molecular Devices). For each spot, the mean signal intensity was extracted and expressed as arbitraty florescence units.

PPKSGDRSGYSSPGS [2] = target: T2, PPKSGDRSGYSSPGS (human); assay: as above
T2 construct: Synthetic peptide covalently immobilized on glass through a hydrophilic linker (RepliTope microarray)
T2 peptide: PPKSGDRSGYSSPGS
Excerpt: as §1, §2

PPKSGDRSGYSSPGS [3] = target: T3, PPKSGDRSGYSSPGS (human); assay: as above
T3 construct: Synthetic peptide covalently immobilized on glass through a hydrophilic linker (RepliTope microarray)
T3 peptide: PPKSGDRSGYSSPGS
Excerpt: as §1, §2

PKSGDRSGYSSPGSP = target: T4, PKSGDRSGYSSPGSP (human); assay: as above
T4 construct: Synthetic peptide covalently immobilized on glass through a hydrophilic linker (RepliTope microarray)
T4 peptide: PKSGDRSGYSSPGSP
Excerpt: as §1, §2

SGEPPKSGDRSGYSS = target: T5, SGEPPKSGDRSGYSS (human, also: covalently immobilized on glass through a hydrophilic linker); assay: as above
T5 construct: Synthetic peptide covalently immobilized on glass through a hydrophilic linker (RepliTope microarray)
T5 peptide: SGEPPKSGDRSGYSS
Excerpt: as §1, §2

EPPKSGDRSGYSSPG = target: T6, EPPKSGDRSGYSSPG (human); assay: as above
T6 construct: Synthetic peptide covalently immobilized on glass through a hydrophilic linker (RepliTope microarray)
T6 peptide: EPPKSGDRSGYSSPG
Excerpt: as §1, §2

PPSSGEPPKSGDRSG = target: T7, PPSSGEPPKSGDRSG (human); assay: as above
T7 construct: Synthetic peptide covalently immobilized on glass through a hydrophilic linker (RepliTope microarray)
T7 peptide: PPSSGEPPKSGDRSG
Excerpt: as §1, §2

GEPPKSGDRSGYSSP [4] = target: T8, GEPPKSGDRSGYSSP (human); assay: as above
T8 construct: Synthetic peptide covalently immobilized on glass through a hydrophilic linker (RepliTope microarray)
T8 peptide: GEPPKSGDRSGYSSP
Excerpt: as §1, §2

SGDRSGYSSPGSPGT = target: T9, SGDRSGYSSPGSPGT (human, also: covalently immobilized on glass through a hydrophilic linker); assay: as above
T9 construct: Synthetic peptide covalently immobilized on glass through a hydrophilic linker (RepliTope microarray)
T9 peptide: SGDRSGYSSPGSPGT
Excerpt: as §1, §2

SSGEPPKSGDRSGYS [5] = target: T10, SSGEPPKSGDRSGYS (human, also: covalently immobilized on glass through a hydrophilic linker); assay: as above
T10 construct: Synthetic peptide covalently immobilized on glass through a hydrophilic linker (RepliTope microarray)
T10 peptide: SSGEPPKSGDRSGYS
Excerpt: as §1, §2

PPAPKTPPSSGEPPK = target: T11, PPAPKTPPSSGEPPK (human); assay: as above
T11 construct: Synthetic peptide covalently immobilized on glass through a hydrophilic linker (RepliTope microarray)
T11 peptide: PPAPKTPPSSGEPPK
Excerpt: as §1, §2

KSGDRSGYSSPGSPG [6] = target: T12, KSGDRSGYSSPGSPG (human); assay: as above
T12 construct: Synthetic peptide covalently immobilized on glass through a hydrophilic linker (RepliTope microarray)
T12 peptide: KSGDRSGYSSPGSPG
Excerpt: as §1, §2

GEPPKSGDRSGYSSP [7] = target: T13, GEPPKSGDRSGYSSP (human); assay: as above
T13 construct: Synthetic peptide covalently immobilized on glass through a hydrophilic linker (RepliTope microarray)
T13 peptide: GEPPKSGDRSGYSSP
Excerpt: as §1, §2

KSGDRSGYSSPGSPG [8] = target: T14, KSGDRSGYSSPGSPG (human); assay: as above
T14 construct: Synthetic peptide covalently immobilized on glass through a hydrophilic linker (RepliTope microarray)
T14 peptide: KSGDRSGYSSPGSPG
Excerpt: as §1, §2

APKTPPSSGEPPKSG = target: T15, APKTPPSSGEPPKSG (human); assay: as above
T15 construct: Synthetic peptide covalently immobilized on glass through a hydrophilic linker (RepliTope microarray)
T15 peptide: APKTPPSSGEPPKSG
Excerpt: as §1, §2

GDRSGYSSPGSPGTP = target: T16, GDRSGYSSPGSPGTP (human); assay: as above
T16 construct: Synthetic peptide covalently immobilized on glass through a hydrophilic linker (RepliTope microarray)
T16 peptide: GDRSGYSSPGSPGTP
Excerpt: as §1, §2

KTPPSSGEPPKSGDR = target: T17, KTPPSSGEPPKSGDR (human); assay: as above
T17 construct: Synthetic peptide covalently immobilized on glass through a hydrophilic linker (RepliTope microarray)
T17 peptide: KTPPSSGEPPKSGDR
Excerpt: as §1, §2

[9] = target: h-Tau 441 (human Tau isoform 2-441, Accession No. NP 005901.2) (human, UniProt P10636 2-758); assay: SPR, BIAcore CM3 sensor chip, immobilized h-Tau 441
Protocol: The binding affinity (Kd) of the 10H8 and 19G10 mAbs was determined by BIAcore CM3 sensor chip (Biacore, Piscataway, N.J.) using immobilized h-Tau 441 as the capture protein.

Chain of h-Tau 441 (human Tau isoform 2-441, Accession No. NP 005901.2) (P10636 other isoform, or with tags, fused parts or gaps limits assumed): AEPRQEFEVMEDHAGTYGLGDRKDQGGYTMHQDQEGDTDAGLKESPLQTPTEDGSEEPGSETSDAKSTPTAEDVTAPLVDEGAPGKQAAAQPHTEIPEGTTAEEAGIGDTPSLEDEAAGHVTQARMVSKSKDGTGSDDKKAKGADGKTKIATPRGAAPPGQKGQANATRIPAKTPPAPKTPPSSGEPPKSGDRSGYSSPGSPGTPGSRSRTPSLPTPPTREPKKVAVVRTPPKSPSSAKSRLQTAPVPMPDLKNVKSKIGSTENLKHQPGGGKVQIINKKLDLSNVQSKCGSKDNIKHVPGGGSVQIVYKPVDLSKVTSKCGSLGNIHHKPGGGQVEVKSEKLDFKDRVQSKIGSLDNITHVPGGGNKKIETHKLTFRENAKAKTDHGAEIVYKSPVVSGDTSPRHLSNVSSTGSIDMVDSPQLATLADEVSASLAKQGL

B1: monoclonal antibody 19G10 (antibody, mouse IgG2b, V domains shown)
VH: QVTLKESGPGILQPSQTLSLTCSFSGFSLSTSGMGVGWIRQPSGKGLEWLAHIWWDDDKYYNAVLKSRLTISKDTSKNQVFLKIASVDTADTATYYCARIGIDGPYAMDYWGQGTSVTVSS
VL: DIVMSQSPSSLAVSIGEKVTMSCKSSQSLLYSNNQKNYLAWYQRKPGQSPKLLIYWASTRESGVPDRFTGSGSGTDFTLTITSVKAEDLAVYYCQQYYSYPLWTFGGGTKLEIK
notes: also called mAb 19G10; 19G10 mAb
SSGEPPKSGDRSGYS [1]
  Fluorescent Intensity: 55400 arbitrary fluorescence units
PPKSGDRSGYSSPGS [2]
  Fluorescent Intensity: 53400 arbitrary fluorescence units
PPKSGDRSGYSSPGS [3]
  Fluorescent Intensity: 58700 arbitrary fluorescence units
PKSGDRSGYSSPGSP
  Fluorescent Intensity: 49600 arbitrary fluorescence units
SGEPPKSGDRSGYSS
  Fluorescent Intensity: 59700 arbitrary fluorescence units
EPPKSGDRSGYSSPG
  Fluorescent Intensity: 63100 arbitrary fluorescence units
PPSSGEPPKSGDRSG
  Fluorescent Intensity: 62000 arbitrary fluorescence units
GEPPKSGDRSGYSSP [4]
  Fluorescent Intensity: 58000 arbitrary fluorescence units
SGDRSGYSSPGSPGT
  Fluorescent Intensity: 619 arbitrary fluorescence units
SSGEPPKSGDRSGYS [5]
  Fluorescent Intensity: 62700 arbitrary fluorescence units
PPAPKTPPSSGEPPK
  Fluorescent Intensity: 892 arbitrary fluorescence units
KSGDRSGYSSPGSPG [6]
  Fluorescent Intensity: 1550 arbitrary fluorescence units
GEPPKSGDRSGYSSP [7]
  Fluorescent Intensity: 58900 arbitrary fluorescence units
KSGDRSGYSSPGSPG [8]
  Fluorescent Intensity: 1810 arbitrary fluorescence units
APKTPPSSGEPPKSG
  Fluorescent Intensity: 761 arbitrary fluorescence units
GDRSGYSSPGSPGTP
  Fluorescent Intensity: 588 arbitrary fluorescence units
KTPPSSGEPPKSGDR
  Fluorescent Intensity: 55800 arbitrary fluorescence units
[9]
  Kd: 6.3 nM
  koff: 0.000176 s⁻¹
  kon: 25900 M⁻¹ s⁻¹
